# In PMC8699718, “A structurally conserved site in AUP1 binds the E2 enzyme UBE2G2 and is essential for ER-associated degradation” (PLoS Biology, 2021):
# T1: UBE2G2:G2BR^AUP1 complex (UniProt P60604 1-165, ^15N-labeled)
# T1 construct: UBE2G2, as m15; AUP1 G2BR, residues 378-404, as m16; Complex formed before titration with the gp78 RING; also called G2BR^AUP1:UBE2G2
# T1 sequence 1: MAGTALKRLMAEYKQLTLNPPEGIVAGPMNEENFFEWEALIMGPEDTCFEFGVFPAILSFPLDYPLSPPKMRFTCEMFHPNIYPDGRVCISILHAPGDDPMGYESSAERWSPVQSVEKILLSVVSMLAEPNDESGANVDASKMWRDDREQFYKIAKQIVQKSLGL
# T1 sequence 2: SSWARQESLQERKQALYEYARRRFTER
# T2: UBE2G2:G2BR^gp78 complex (UniProt P60604 1-165, ^15N-labeled)
# T2 construct: UBE2G2, as m15; N-terminal Trp residue added for peptide quantification, as m17; gp78 G2BR, residues 574-600, as m17; Complex formed before titration with the gp78 RING; also called G2BR^gp78:UBE2G2
# T2 sequence 1: T1 sequence 1
# T2 sequence 2: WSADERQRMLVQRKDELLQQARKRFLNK
# T3: purified UBE2G2 (UniProt P60604 1-165, ^15N-labeled for NMR)
# T3 construct: UBE2G2, purified recombinant protein used for ITC, FP, MST and NMR; also called apo-UBE2G2; ^15N-labeled UBE2G2
# T3 sequence (looked up): T1 sequence 1
# T4: UBE2G2 (Homo sapiens, UniProt P60604)
# T4 construct: made in house
# T4 sequence (P60604 1-165): T1 sequence 1
# B1: gp78 RING domain (domain or fragment, UniProt Q9UKV5 313-393, looked up)
# chain: KNYLRVVGNMEARFAVATPEELAVNNDDCAICWDSMQAARKLPCGHLFHNSCLRSWLEQDTSCPTCRMSLNIADNNRVREE
# notes: gp78 (aka AMFR or RNF45), RING domain; the limits 313-393 are those of the only gp78-RING construct that the methods name; also called gp78-RING construct (aa 313 to 393)
# B2: GST fusion of AUP1: GST fusion of AUP1 that includes the G2BR (protein)
# chain: SPDVQLATLAQRVKEVLPHVPLGVIQRDLAKTGCVDLTITNLLEGAVAFMPEDITKGTQSLPTASASKFPSSGPVTPQPTALTFAKSSWARQESLQERKQALYEYARRRFTERRAQEAD
# modifications: left off: GST, end not stated, kept
# notes: GST fusion of AUP1 that includes the G2BR
# Assays:
# UBE2G2:G2BR^AUP1 complex = molecular target: T1, UBE2G2:G2BR^AUP1 complex; experiment: NMR titration; ^1H-^15N HSQC of ^15N-labeled UBE2G2 at 150 μM, alone or bound to G2BR peptide, titrated with gp78 RING 0 to 450 μM; chemical shift perturbations fitted; 50 mM Tris-Cl pH 7.0, 0.5 mM TCEP, 100 μM zinc sulfate; conditions: both partners purified
# UBE2G2:G2BR^gp78 complex = molecular target: T2, UBE2G2:G2BR^gp78 complex; experiment: as above; conditions: both partners purified
# purified UBE2G2 = molecular target: T3, purified UBE2G2; experiment: as above; conditions: both partners purified
# UBE2G1 = experiment: GST pulldown of in vitro translated 35S-UBE2G1; assay type: binding; conditions: GST-AUP1 aa 292 to 410, overnight 4°C, pH 7.4
# Experimental: (§1) Fig 3 The AUP1–UBE2G2 interaction is required for ERAD. (A) Equimolar amounts of GST-AUP1 (aa 292 to 410) or GST were immobilized on glutathione beads and binding to the indicated in vitro translated ^35S-labeled E2s was assessed. Left panel is 5% of input used for binding. E2s are referred to by their unique alpha-numeric designation (e.g., UBE2G1 and UBE2J1). (B) HT1080 or UBE2G2 KO cells were transfected with INSIG-1-MYC and degradation assessed by CHX chase. […] (D) Cells were transfected with NHK-MYC and HA-ubiquitin and ubiquitination of NHK assessed following proteasome inhibition and IP (right panel). Left panel is 10% of total cell lysate used for IP, indicating no discernable change in total ubiquitination. (E) Levels of endogenous HRD1 were monitored by CHX chase in the indicated cell types. (F) Ubiquitination of endogenous HRD1 was assessed following IP with HRD1 antiserum. Arrow in upper panel indicates migration of unmodified HRD1. Control immunoprecipitates using rabbit serum are shown for comparison. […]
# (§2) In vitro translated ^35S methionine-labeled E2s were generated using the E. coli T7-S30 Extract System (Promega) and excess ^35S methionine was removed by desalting twice with Zeba Spin Desalting Columns (Thermo Scientific). GST fusion proteins were quantified by Coomassie blue staining. […] Binding was quantified using ImageQuant Software.
# UBE2J1/UBC6e = experiment: GST pulldown of in vitro translated 35S-UBE2J1; assay type: binding; conditions: GST-AUP1 aa 292 to 410, overnight 4°C, pH 7.4
# Experimental: as §1, §2
# UBE2D2/UBCH5B = experiment: GST pulldown of in vitro translated 35S-UBE2D2; assay type: binding; conditions: GST-AUP1 aa 292 to 410, overnight 4°C, pH 7.4
# Experimental: as §1, §2
# UBE2G2 = molecular target: T4, UBE2G2; experiment: GST pulldown of in vitro translated 35S-UBE2G2; assay type: binding; conditions: GST-AUP1 aa 292 to 410 on glutathione beads, ~3 pmol GST fusion, ~0.2 pmol E2, overnight 4°C, pH 7.4
# Experimental: Fig 3 The AUP1–UBE2G2 interaction is required for ERAD. (A) Equimolar amounts of GST-AUP1 (aa 292 to 410) or GST were immobilized on glutathione beads and binding to the indicated in vitro translated ^35S-labeled E2s was assessed. Left panel is 5% of input used for binding. E2s are referred to by their unique alpha-numeric designation (e.g., UBE2G1 and UBE2J1). (B) HT1080 or UBE2G2 KO cells were transfected with INSIG-1-MYC and degradation assessed by CHX chase. […] (D) Cells were transfected with NHK-MYC and HA-ubiquitin and ubiquitination of NHK assessed following proteasome inhibition and IP (right panel). Left panel is 10% of total cell lysate used for IP, indicating no discernable change in total ubiquitination. (E) Levels of endogenous HRD1 were monitored by CHX chase in the indicated cell types. (F) Ubiquitination of endogenous HRD1 was assessed following IP with HRD1 antiserum. Arrow in upper panel indicates migration of unmodified HRD1. Control immunoprecipitates using rabbit serum are shown for comparison. The data underlying this figure can be found in S1 Data. aa, amino acid; AUP1, ancient ubiquitous protein 1; CHX, cycloheximide; ERAD, endoplasmic reticulum–associated degradation; IP, immunoprecipitation; KO, knockout; WT, wild type.
# Fig 6 Disruption of UBE2G2:G2BR^AUP1 interaction abrogates AUP1 function in cells. (A) GST or indicated GST-AUP1 fusions (aa 292 to 410, expression shown in Coomassie-stained gel) were immobilized on glutathione beads and binding to ^35S-UBE2G2 was assessed as in Fig 3A. Mutations include 2A (R382A/Q383A), 2E (R382E/Q383E), and 5E (R382E/Q383E/K390E/R398E/R400E). (B) AUP1 KO cells were transfected with NHK-HA and forms of full-length AUP1-FLAG with the indicated point mutations from (A) and NHK degradation assessed by CHX chase. (C) Binding assay performed as in (A) with AUP1 mutants predicted to disrupt hydrophobic interactions with UBE2G2. (D) Cellular assay performed as in (B) with AUP1-FLAG mutants that disrupt interactions with UBE2G2 in vitro in (C). The data underlying this figure can be found in S1 Data. aa, amino acid; AUP1, ancient ubiquitous protein 1; CHX, cycloheximide; G2BR, UBE2G2 Binding Region; KO, knockout; WT, wild type.
# In vitro translated ^35S methionine-labeled E2s were generated using the E. coli T7-S30 Extract System (Promega) and excess ^35S methionine was removed by desalting twice with Zeba Spin Desalting Columns (Thermo Scientific). GST fusion proteins were quantified by Coomassie blue staining. Moreover, 0.1 μg of GST fusion protein (approximately 3 pmol) was prebound to GS 4B (GE Healthcare) and then incubated with approximately 10^5 cpm of ^35S methionine-labeled E2 (approximately 0.2 pmol) in 200 μl Binding Buffer (25 mM Tris-HCl, pH 7.4, 50 mM NaCl, 5 mM DTT, 0.5% IGEPAL CA-630) overnight at 4°C. Beads were extensively washed in Binding Buffer, resolved on Bis/Tris polyacrylamide gels under reducing conditions, dried and visualized on a Typhoon FLA 7000 (GE Healthcare). Binding was quantified using ImageQuant Software.
# UBE2D3/UBCH5C = experiment: GST pulldown of in vitro translated 35S-UBE2D3; assay type: binding; conditions: GST-AUP1 aa 292 to 410, overnight 4°C, pH 7.4
# Experimental: as §1, §2
Molecule,Kd (UBE2G2:G2BR^AUP1 complex) [µM],Kd (UBE2G2:G2BR^gp78 complex) [µM],Kd (purified UBE2G2) [µM],binding to UBE2G1 (UBE2G1),binding to UBE2J1 (UBE2J1/UBC6e),binding to UBE2D2 (UBE2D2/UBCH5B),binding to UBE2G2 (UBE2G2),binding to UBE2D3 (UBE2D3/UBCH5C)
B1,22.5,20.3,207 ± 6.4,–,–,–,–,–
B2,–,–,–,not UBE2G1,failed to show detectable binding,no discernable binding,bound UBE2G2,no discernable binding
